Measured values as given in the RNAGym collection of RNA variant scans (doi:10.1021/acssynbio.7b00057).

B1: Pistol ribozyme (parent)
chain: GGGUCGUUGUUCCAUAAUCGCGUGGAUAUGGCACGCAAGUUUCUACCGGGCACCGUAAAUGUCCGACUGGAGCCGUUCGGGCGGCUAUAAACAGACCUCAGGCCCGAAGCGUGGCGGCACCUGCCGCCGGUGGUAAAAAAGAUCGGAAGAGCACACGUCU

Variants of: B1
Experiment: aptazyme ON/OFF ratio, guanine; higher = stronger switching; co-transcriptional cleavage with and without guanine

Variant	aptazyme ON/OFF ratio
U7C U8C G9U U10A U11G	1.34
U7C U8C G9U U10A U11A	2.27
U7C U8C G9C U11G C12G	1.11
U7C U8C G9C U11G C12U	1.12
U7C U8C G9C U11G C12A	1.22
U7C U8C G9U U10G U11C C13G	1.06
U7C U8C G9U U10G U11C C13U	1.21
U7C U8C G9U U10G U11C C13A	1.29
U7C U8C G9U U11G C12G C13U	1.05
U7C U8C G9U U11G C12G C13G	1.14
U7C U8C G9U U11G C12G C13A	1.09
U7C U8C G9C U11C C12U C13A	1.05
U7C U8C G9C U11C C12U C13G	1.08
U7C U8C G9C U11C C12U C13U	1.11
U7C U8C G9C U11G C13U	1.1
U7C U8C G9C U11G C13A	1.12
U7C U8C G9C U11G C13G	1.12
U7C U8C G9U U10C C12A	1.29
U7C U8C G9U U10C C12U	1.32
U7C U8C G9U U10C C12G	1.22
U7C U8C G9U U11C C13A	1.02

Variant	aptazyme ON/OFF ratio
U7C U8C G9U U11C C13G	1.02
U7C U8C G9U U11C C13U	1.02
U7C U8C U10A U11C C12U C13A	1.08
U7C U8C U10A U11C C12U C13G	1.1
U7C U8C U10A U11C C12U C13U	1.07
U7C U8C G9U U10C U11G C12U C13A	1.09
U7C U8C G9U U10C U11G C12U C13U	1.21
U7C U8C G9U U10C U11G C12U C13G	1.19
U7C U8C G9U U11G C12U C13G	1.07
U7C U8C G9U U11G C12U C13A	1.1
U7C U8C G9U U11G C12U C13U	1.09
U7C U8C G9U U11A C12U	1.25
U7C U8C G9U U11A C12A	1.21
U7C U8C G9U U11A C12G	1.18
U7C U8C G9U U10A U11G C13A	1.12
U7C U8C G9U U10A U11G C13G	1.11
U7C U8C G9U U10A U11G C13U	1.31
U7C U8C G9U U10A U11A C12A C13U	1.1
U7C U8C G9U U10A U11A C12A C13A	1.12
U7C U8C G9U U10A U11A C12A C13G	1.11
U7C U8C G9U U10C U11G	1.32

Variant	aptazyme ON/OFF ratio
U7C U8C G9U U10C U11C	1.3
U7C U8C G9U U10C U11A	2.44
U7C U8C U10A C12A C13A	1.05
U7C U8C U10A C12A C13U	1.04
U7C U8C U10A C12A C13G	1.06
U7C U8C G9U U10C U11C C12U C13A	1.08
U7C U8C G9U U10C U11C C12U C13G	1.1
U7C U8C G9U U10C U11C C12U C13U	1.08
U7C U8C G9U U10A U11A C13U	1.22
U7C U8C G9U U10A U11A C13A	1.13
U7C U8C G9U U10A U11A C13G	1.14
U7C U8C G9U U10A U11A C12U	1.28
U7C U8C G9U U10A U11A C12G	1.2
U7C U8C G9U U10A U11A C12A	1.27
U7C U8C G9U U10A C12G	1.22
U7C U8C G9U U10A C12U	1.17
U7C U8C G9U U10A C12A	1.22
U7C U8C G9U U10G U11C C12A	1.17
U7C U8C G9U U10G U11C C12G	1.24
U7C U8C G9U U10G U11C C12U	1.25
U7C U8C G9U U10G U11A C13A	1.18

Variant	aptazyme ON/OFF ratio
U7C U8C G9U U10G U11A C13U	1.17
U7C U8C G9U U10G U11A C13G	1.1
U7C U8C G9U U10C U11A C12A C13U	1.09
U7C U8C G9U U10C U11A C12A C13G	1.17
U7C U8C G9U U10C U11A C12A C13A	1.17
U7C U8C G9U U10C U11G C12G C13A	1.14
U7C U8C G9U U10C U11G C12G C13U	1.08
U7C U8C G9U U10C U11G C12G C13G	1.09
U7C U8C G9U U10C C12A C13A	1.17
U7C U8C G9U U10C C12A C13G	1.09
U7C U8C G9U U10C C12A C13U	1.07
U7C U8C G9U U10G U11G C13G	1.13
U7C U8C G9U U10G U11G C13A	1.1
U7C U8C G9U U10G U11G C13U	1.08
U7C U8C G9U U11C C12U C13U	1.02
U7C U8C G9U U11C C12U C13G	1.05
U7C U8C G9U U11C C12U C13A	1.03
U7C U8C G9U U10G C12U C13U	1.21
U7C U8C G9U U10G C12U C13G	1.12
U7C U8C G9U U10G C12U C13A	1.1
